Experimental findings from PMC7910549 are described below.

The assay concerns the target GFP-tagged CSB (UniProt Q03468). Nature of the assay: affinity purification with mass spectrometry; label-free quantification and iBAQ; GFP-CSB pulled down with GFP Trap beads from U2OS CSB-KO cells; untreated against 20 J/m^2 UV-C with 1 h recovery.
Sequence of UniProt Q03468 (Q03468 whole entry): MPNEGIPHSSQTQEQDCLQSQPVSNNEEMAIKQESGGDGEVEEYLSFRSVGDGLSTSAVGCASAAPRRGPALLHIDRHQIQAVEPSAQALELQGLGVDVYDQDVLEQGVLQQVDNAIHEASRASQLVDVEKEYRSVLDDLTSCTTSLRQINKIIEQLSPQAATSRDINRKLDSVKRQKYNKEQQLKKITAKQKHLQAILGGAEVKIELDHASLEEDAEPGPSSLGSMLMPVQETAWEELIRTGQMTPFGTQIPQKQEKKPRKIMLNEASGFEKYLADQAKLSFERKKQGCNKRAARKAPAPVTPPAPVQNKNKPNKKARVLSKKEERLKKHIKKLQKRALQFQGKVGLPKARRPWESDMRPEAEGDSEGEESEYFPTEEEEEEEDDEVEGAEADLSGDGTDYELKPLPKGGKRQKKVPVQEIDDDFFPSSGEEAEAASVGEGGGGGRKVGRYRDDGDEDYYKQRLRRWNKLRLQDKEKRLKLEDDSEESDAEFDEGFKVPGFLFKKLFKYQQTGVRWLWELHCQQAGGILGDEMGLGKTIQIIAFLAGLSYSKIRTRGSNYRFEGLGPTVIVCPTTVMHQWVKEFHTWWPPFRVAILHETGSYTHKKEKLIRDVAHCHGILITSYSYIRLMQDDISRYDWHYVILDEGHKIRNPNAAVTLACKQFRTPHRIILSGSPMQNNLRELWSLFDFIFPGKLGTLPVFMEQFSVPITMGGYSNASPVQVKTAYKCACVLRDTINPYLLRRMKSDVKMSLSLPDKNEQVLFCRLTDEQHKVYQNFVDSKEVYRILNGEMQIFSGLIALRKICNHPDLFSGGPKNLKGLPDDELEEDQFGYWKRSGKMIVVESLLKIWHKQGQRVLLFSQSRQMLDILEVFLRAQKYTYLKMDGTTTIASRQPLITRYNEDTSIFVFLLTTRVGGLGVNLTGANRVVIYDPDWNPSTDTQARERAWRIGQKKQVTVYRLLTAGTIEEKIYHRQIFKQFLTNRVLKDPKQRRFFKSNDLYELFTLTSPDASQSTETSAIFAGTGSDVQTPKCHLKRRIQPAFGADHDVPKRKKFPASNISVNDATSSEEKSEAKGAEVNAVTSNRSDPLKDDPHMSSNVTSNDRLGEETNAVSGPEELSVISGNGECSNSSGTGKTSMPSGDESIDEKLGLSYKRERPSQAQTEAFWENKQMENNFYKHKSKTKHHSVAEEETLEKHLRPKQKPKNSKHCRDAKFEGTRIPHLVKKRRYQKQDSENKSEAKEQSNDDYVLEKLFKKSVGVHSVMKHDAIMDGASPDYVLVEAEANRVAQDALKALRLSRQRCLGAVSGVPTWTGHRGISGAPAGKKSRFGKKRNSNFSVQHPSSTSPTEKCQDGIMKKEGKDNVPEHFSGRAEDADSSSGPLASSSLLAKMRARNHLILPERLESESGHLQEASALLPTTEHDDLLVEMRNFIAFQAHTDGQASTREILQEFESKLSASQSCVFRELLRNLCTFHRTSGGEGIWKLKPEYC

Substance “RNA polymerase II (RNAPII), endogenous (from UniProt P24928 1-1970) (complex)” registered a percent of the isolated CSB molecules associated (iBAQ) of over 60%.
